According to doi:10.1101/2020.09.16.300517:
Values joined by “and” are separate entries in the source; they are usually repeats but may differ in a detail not shown here. Equal values may be shown once.

Assays:
[1] = biological target: phalloidin-stabilized pyrene-labeled F-actin (rabbit) (UniProt P68135); experiment: other fluorescence titration
[2] = biological target: bovine cardiac ventricular β-myosin subfragment 1 (α-chymotryptic S1) (bovine); experiment: stopped-flow fluorescence kinetics

PFA fluorescence restored by MgATP, with Mava [1] [%] | PFA fluorescence restored by MgATP, with OM [1] [%] | decrease in pyrene fluorescence intensity at S1:actin 0.7:1 [1] [%] | stoichiometry N [1] [S1 per actin] | Kd [2] | Substance
84 | 65 | 46 | 1 |  | bovine cardiac ventricular β-myosin subfragment 1 (α-chymotryptic S1) (domain or fragment)
 |  |  |  | 48 nM and 57 nM | phalloidin-stabilized pyrene-labeled F-actin (from UniProt P68135 1-377) (natural protein)
